Reference: publication PMC4323994
Where no end group is shown, it is not given here.

How the values were obtained:
Assay in all cases: ELISA
[1] = target: HLA-DR molecule, DRB1*0701 (human)
[2] = target: HLA-DR molecule, DRB1*1501 (human)
[3] = target: HLA-DR molecule, DRB1*0101 (human)

Binder	IC50 [1] [nM]	IC50 [2] [µM]	IC50 [3] [nM]
GKQLYNVEATSYALLALLQLKDFD (also: amino and carboxyl ends blocked) [C3d_(223–246)]	< 2000	85.1	< 2000
GKQLYNVEATSYALL (also: amino and carboxyl ends blocked) [C3d_(223–237) wild type peptide (sequence overlapping the P28 peptide segment and C3d_(223–246))]	–	–	365
QATFMVFQALAQYQKDAP (also: amino and carboxyl ends blocked) [C3d_(269–286)]	2450	> 100	5630
